We go through 22 molecules from patent US20210403591A1 (OSSIANIX, published 2021).

The labels stand for the following.
B1: Clone C variant 1 VNAR-hFc (Fc fusion, not shown: a dimerising Fc or GST)
chain: ARVDQTPQTITKETGESLTINCVLRDSNCALSSTYWYRKKSGSTNEENISKGGRYVETVNSGSKSFSLRINDLTVEDSGTYRCNVAQRPSYNNYFWCDVYGDGTAVTVN
B2: Clone C variant 23 VNAR-hFc (Fc fusion, not shown: a dimerising Fc or GST)
chain: B1 chain with A86V, R88Y, Y91Q, N92Q
B3: Clone C variant 24 VNAR-hFc (Fc fusion, not shown: a dimerising Fc or GST)
chain: B1 chain with A86V, R88Y, Y91W, N92D
B4: Clone C variant 14 VNAR-hFc (Fc fusion, not shown: a dimerising Fc or GST)
chain: B1 chain with A86V, R88Y, S90Q, Y91Q, N92D, N93R, Y94P
B5: Clone C variant 19 VNAR-hFc (Fc fusion, not shown: a dimerising Fc or GST)
chain: B1 chain with A86V, R88Y, S90R, Y91T
B6: Clone C variant 22 VNAR-hFc (Fc fusion, not shown: a dimerising Fc or GST)
chain: B1 chain with A86V, R88Y, Y91N
B7: Clone C variant 9 VNAR-hFc (Fc fusion, not shown: a dimerising Fc or GST)
chain: B1 chain with A86V, R88W, S90T, Y91L, N92S, N93S, Y94P
B8: Clone C variant 15 VNAR-hFc (Fc fusion, not shown: a dimerising Fc or GST)
chain: B1 chain with A86V, R88Y, S90Q, Y91Q, N92P
B9: Clone C variant 5 VNAR-hFc (Fc fusion, not shown: a dimerising Fc or GST)
chain: B1 chain with A86V, R88S
B10: Clone C variant 2 VNAR-hFc (Fc fusion, not shown: a dimerising Fc or GST)
chain: B1 chain with A86L
B11: Clone C variant 20 VNAR-hFc (Fc fusion, not shown: a dimerising Fc or GST)
chain: B1 chain with A86V, R88Y, Y91H
B12: Clone C variant 17 VNAR-hFc (Fc fusion, not shown: a dimerising Fc or GST)
chain: B1 chain with A86V, R88Y, S90Q, N92D
B13: Clone C variant 3 VNAR-hFc (Fc fusion, not shown: a dimerising Fc or GST)
chain: B1 chain with A86V, R88H
B14: Clone C variant 10 VNAR-hFc (Fc fusion, not shown: a dimerising Fc or GST)
chain: B1 chain with A86V, R88Y, S90F, Y91L, N92E
B15: Clone C variant 8 VNAR-hFc (Fc fusion, not shown: a dimerising Fc or GST)
chain: B1 chain with A86V, R88W
B16: Clone C variant 21 VNAR-hFc (Fc fusion, not shown: a dimerising Fc or GST)
chain: B1 chain with A86V, R88Y, Y91I, N92F
B17: Clone C variant 11 VNAR-hFc (Fc fusion, not shown: a dimerising Fc or GST)
chain: B1 chain with A86V, R88Y, S90H
B18: Clone C variant 12 VNAR-hFc (Fc fusion, not shown: a dimerising Fc or GST)
chain: B1 chain with A86V, R88Y, S90Q, Y91Q, N92D, Y94P
B19: Clone C variant 7 VNAR-hFc (Fc fusion, not shown: a dimerising Fc or GST)
chain: B1 chain with A86V, R88W, Y91L, N92S, N93S, Y94P
B20: Clone C variant 4 VNAR-hFc (Fc fusion, not shown: a dimerising Fc or GST)
chain: B1 chain with A86V
B21: Clone C variant 6 VNAR-hFc (Fc fusion, not shown: a dimerising Fc or GST)
chain: B1 chain with A86V, R88W, Y91I, N92Q, N93S, Y94P
B22: Clone C variant 25 VNAR-hFc (Fc fusion, not shown: a dimerising Fc or GST)
chain: B1 chain with A86V, R88Y, N92D, Y94P

Changes are numbered by the printed parent chain.

T1 sequence (P02786 89-760 limits assumed): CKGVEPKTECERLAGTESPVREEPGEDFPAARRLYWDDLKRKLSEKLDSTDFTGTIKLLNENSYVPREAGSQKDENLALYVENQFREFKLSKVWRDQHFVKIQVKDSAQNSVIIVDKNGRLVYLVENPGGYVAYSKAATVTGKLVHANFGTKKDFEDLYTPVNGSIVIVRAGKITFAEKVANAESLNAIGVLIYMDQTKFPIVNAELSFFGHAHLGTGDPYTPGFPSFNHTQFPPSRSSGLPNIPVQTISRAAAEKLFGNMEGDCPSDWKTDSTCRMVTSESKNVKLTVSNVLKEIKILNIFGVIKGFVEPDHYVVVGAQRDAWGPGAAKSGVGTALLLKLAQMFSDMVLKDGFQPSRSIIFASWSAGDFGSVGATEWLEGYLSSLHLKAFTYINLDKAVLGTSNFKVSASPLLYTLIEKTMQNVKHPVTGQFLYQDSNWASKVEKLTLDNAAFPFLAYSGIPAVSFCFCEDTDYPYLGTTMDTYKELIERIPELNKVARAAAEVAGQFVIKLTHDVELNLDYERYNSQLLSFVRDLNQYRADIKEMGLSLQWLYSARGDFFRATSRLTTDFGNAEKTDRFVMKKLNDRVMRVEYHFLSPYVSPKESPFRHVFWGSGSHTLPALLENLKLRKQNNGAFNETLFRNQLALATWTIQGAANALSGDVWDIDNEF
T2 sequence (Q62351 89-763 limits assumed, stated change not applied): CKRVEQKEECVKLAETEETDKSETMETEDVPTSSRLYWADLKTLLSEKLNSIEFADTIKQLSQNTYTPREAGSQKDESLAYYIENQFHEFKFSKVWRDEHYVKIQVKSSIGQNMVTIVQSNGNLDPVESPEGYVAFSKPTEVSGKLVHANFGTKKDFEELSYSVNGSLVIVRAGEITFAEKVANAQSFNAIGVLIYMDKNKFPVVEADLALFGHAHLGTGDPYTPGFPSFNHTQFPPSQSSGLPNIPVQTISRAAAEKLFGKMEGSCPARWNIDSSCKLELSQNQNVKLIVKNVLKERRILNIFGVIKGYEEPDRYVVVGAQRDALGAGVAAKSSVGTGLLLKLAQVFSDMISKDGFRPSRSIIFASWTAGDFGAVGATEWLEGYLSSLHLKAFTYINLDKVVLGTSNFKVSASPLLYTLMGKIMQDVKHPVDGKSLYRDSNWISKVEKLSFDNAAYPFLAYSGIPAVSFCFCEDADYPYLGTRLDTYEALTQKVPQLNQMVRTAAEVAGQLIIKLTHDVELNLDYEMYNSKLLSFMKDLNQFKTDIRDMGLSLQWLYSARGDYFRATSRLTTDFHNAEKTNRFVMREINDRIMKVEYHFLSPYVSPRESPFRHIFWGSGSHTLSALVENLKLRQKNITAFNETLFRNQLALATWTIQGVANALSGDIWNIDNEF

The first experiment addresses T1, recombinant human TfR-1, His-tagged (Sino Biological 11020-H07H) (human, UniProt P02786 89-760).
T1 construct: bought; His-tagged; also called hTfR1; hTfR-1
In words: SPR, His-captured TfR1. Here is the method: (§1) Detailed binding kinetic analyses were performed to gain a better understanding of the relationship between affinity and brain penetration of the Clone C variants. Biacore surface plasmon resonance (SPR) analysis using immobilised mouse and human TfR-1 was performed for selected clones (Table 2).
(§2) Binding kinetics of VNAR-Fcs was determined by surface plasmon resonance (Biacore T200, GE Healthcare). CMS chips were coated with anti-His antibodies (His Capture Kit, GE Healthcare) as recommended by the manufacturer and human or mouse his-tagged TfR1 (SinoBiological) at 10 ug/mL in HBS-EP+ (GE Healthcare) was captured at flow rate 10 ul/min (contact time 120 s). […] A flow cell without TfR1 captured served as a reference. Sensorgrams were fitted and kinetic constants were determined using Biacore T200 Evaluation software. Chips were regenerated in 10 mM Glycine-HCl, pH 1.5 (contact time: 120 s at flow rate 30 ul/min).
Take B1: the Kd worked out at 2.79 nM, the off-rate constant (koff) was determined as 0.000322 s⁻¹ and the kon came to 115000 M⁻¹ s⁻¹.

Regarding B2, the Kd turned out to be 1.36 nM, the koff turned out to be 0.000432 s⁻¹ and the kon is 317000 M⁻¹ s⁻¹.

As for B3, the dissociation constant Kd stood at 2.19 nM, the koff stood at 0.000194 s⁻¹ and the kon amounted to 88800 M⁻¹ s⁻¹.

B4: the Kd stood at 6.34 nM, the koff came to 0.000156 s⁻¹ and the kon was 24500 M⁻¹ s⁻¹.

B5: the dissociation constant (Kd) came out at 0.454 nM, the off-rate constant (koff) stood at 0.000109 s⁻¹ and the association rate constant (kon) turned out to be 239000 M⁻¹ s⁻¹.

Consider B6, for which the Kd stood at 8.44 nM, the koff came out at 0.000627 s⁻¹ and the kon was 74200 M⁻¹ s⁻¹.

On to B7, for which the Kd is 26.5 nM, the dissociation rate constant (koff) came to 0.000754 s⁻¹ and the on-rate constant (kon) came out at 28500 M⁻¹ s⁻¹.

For the molecule B8, the Kd was determined as 0.248 nM, the off-rate constant (koff) was 5.78e-05 s⁻¹ and the kon came to 233000 M⁻¹ s⁻¹.

In the case of B9, the Kd was 0.733 nM, the off-rate (koff) is 0.000302 s⁻¹ and the kon is 411000 M⁻¹ s⁻¹.

For the molecule B10, the Kd came to 49.4 nM, the off-rate (koff) was 0.000677 s⁻¹ and the kon is 13700 M⁻¹ s⁻¹.

As to B11, the dissociation constant Kd worked out at 5.61 nM, the koff turned out to be 0.000291 s⁻¹ and the on-rate constant (kon) stood at 51900 M⁻¹ s⁻¹.

Turning to B12, the dissociation constant (Kd) came to 0.439 nM, the off-rate constant (koff) was found to be 8.13e-05 s⁻¹ and the on-rate constant (kon) was determined as 185000 M⁻¹ s⁻¹.

Consider B13, for which the Kd came to 0.311 nM, the koff came out at 0.000119 s⁻¹ and the kon was 381000 M⁻¹ s⁻¹.

With B14, the Kd was 2.79 nM, the koff was 0.000389 s⁻¹ and the kon is 140000 M⁻¹ s⁻¹.

As to B15, the Kd came out at 4.5 nM, the koff came to 0.000519 s⁻¹ and the on-rate constant (kon) worked out at 115000 M⁻¹ s⁻¹.

As for B16, the Kd stood at 4.58 nM, the koff came to 0.000437 s⁻¹ and the kon was determined as 95500 M⁻¹ s⁻¹.

Consider B17, for which the Kd is 0.472 nM, the koff stood at 9.01e-05 s⁻¹ and the kon was 191000 M⁻¹ s⁻¹.

Regarding B18, the Kd came to 0.699 nM, the koff stood at 0.000142 s⁻¹ and the on-rate constant (kon) was determined as 203000 M⁻¹ s⁻¹.

Regarding B19, the Kd amounted to 0.636 nM, the koff amounted to 7.02e-05 s⁻¹ and the on-rate (kon) turned out to be 110000 M⁻¹ s⁻¹.

Turning to B20, the Kd came to 9.21 nM, the dissociation rate constant (koff) stood at 0.000325 s⁻¹ and the on-rate constant (kon) is 35200 M⁻¹ s⁻¹.

As to B21, the Kd was 19.3 nM, the dissociation rate constant (koff) turned out to be 0.000955 s⁻¹ and the kon is 49500 M⁻¹ s⁻¹.

Turning to B22, the Kd was found to be 17.1 nM, the dissociation rate constant (koff) stood at 0.000569 s⁻¹ and the kon was 33300 M⁻¹ s⁻¹.

The next experiment addresses T2, recombinant mouse TfR-1, His-tagged (Sino Biological 50741-M07H) (mouse, UniProt Q62351 89-763).
T2 construct: bought; His-tagged; also called mTfR1; mTfR-1
In words: SPR, His-captured TfR1. Here is the method: as §1, §2
Turning to B1, the Kd came to 1.45 nM, the off-rate constant (koff) worked out at 0.000154 s⁻¹ and the on-rate constant (kon) was 106000 M⁻¹ s⁻¹.

On to B4, for which the Kd came to 6.69 nM, the off-rate (koff) came to 0.000133 s⁻¹ and the kon was determined as 19900 M⁻¹ s⁻¹.

For the molecule B5, the dissociation constant Kd was determined as 1.33 nM, the koff worked out at 0.000287 s⁻¹ and the kon amounted to 216000 M⁻¹ s⁻¹.

B7: the Kd amounted to 2.43 nM, the koff amounted to 9.32e-05 s⁻¹ and the kon came out at 38300 M⁻¹ s⁻¹.

In the case of B8, the Kd is 0.0902 nM, the koff came out at 2.52e-05 s⁻¹ and the association rate constant (kon) worked out at 279000 M⁻¹ s⁻¹.

Consider B9, for which the Kd worked out at 0.486 nM, the off-rate constant (koff) came to 0.000135 s⁻¹ and the kon amounted to 278000 M⁻¹ s⁻¹.

Consider B10, for which the Kd stood at 9.65 nM, the off-rate (koff) is 0.000144 s⁻¹ and the on-rate (kon) was determined as 14900 M⁻¹ s⁻¹.

For B11, the equilibrium dissociation constant (Kd) amounted to 2.06 nM, the koff amounted to 0.000103 s⁻¹ and the association rate constant (kon) amounted to 50100 M⁻¹ s⁻¹.

On to B12, for which the Kd came to 0.207 nM, the koff was 3.72e-05 s⁻¹ and the kon was 180000 M⁻¹ s⁻¹.

Consider B13, for which the equilibrium dissociation constant (Kd) came to 0.72 nM, the koff was found to be 0.000256 s⁻¹ and the on-rate (kon) was 355000 M⁻¹ s⁻¹.

Consider B15, for which the Kd is 6.81 nM, the dissociation rate constant (koff) is 0.000432 s⁻¹ and the association rate constant (kon) was 63500 M⁻¹ s⁻¹.

For the molecule B17, the Kd amounted to 0.291 nM, the koff stood at 5.17e-05 s⁻¹ and the kon is 177000 M⁻¹ s⁻¹.

B18: the equilibrium dissociation constant (Kd) stood at 0.715 nM, the koff stood at 0.000128 s⁻¹ and the kon worked out at 179000 M⁻¹ s⁻¹.

Consider B19, for which the Kd came out at 0.286 nM, the koff was 3.39e-05 s⁻¹ and the on-rate constant (kon) came to 119000 M⁻¹ s⁻¹.

Take B20: the Kd worked out at 2.34 nM, the dissociation rate constant (koff) stood at 8.76e-05 s⁻¹ and the kon is 37400 M⁻¹ s⁻¹.
